The target of series [1] is T1, Egalitarian (Egl);Bicaudal D (BicD) (Drosophila melanogaster;Drosophila …, UniProt Q9W1K4;P16568 1-1004;1-782, |). The series can be described thus: single-molecule motility; with human dynein and pig dynactin; single RNA per motile complex; MST: 1 nM Cy5-RNA in GF150 (25 mM HEPES pH 7.3, 150 mM KCl, 1 mM MgCl2, 0.1 mM Mg-ATP, 5 mM DTT, 10% glycerol) + 0.05% Tween-20, 15 min, room temperature; Egl-BicD conc. as 2:2 complex. Conditions: protein: recombinant;recombinant; tags: C-terminal TEV-ZZ (cleaved);; chain copies: 2;2; label: Cy3- or Cy5-UTP; two hairpins.
T1 sequence (chain, as listed by the source |, chain 1 of 2): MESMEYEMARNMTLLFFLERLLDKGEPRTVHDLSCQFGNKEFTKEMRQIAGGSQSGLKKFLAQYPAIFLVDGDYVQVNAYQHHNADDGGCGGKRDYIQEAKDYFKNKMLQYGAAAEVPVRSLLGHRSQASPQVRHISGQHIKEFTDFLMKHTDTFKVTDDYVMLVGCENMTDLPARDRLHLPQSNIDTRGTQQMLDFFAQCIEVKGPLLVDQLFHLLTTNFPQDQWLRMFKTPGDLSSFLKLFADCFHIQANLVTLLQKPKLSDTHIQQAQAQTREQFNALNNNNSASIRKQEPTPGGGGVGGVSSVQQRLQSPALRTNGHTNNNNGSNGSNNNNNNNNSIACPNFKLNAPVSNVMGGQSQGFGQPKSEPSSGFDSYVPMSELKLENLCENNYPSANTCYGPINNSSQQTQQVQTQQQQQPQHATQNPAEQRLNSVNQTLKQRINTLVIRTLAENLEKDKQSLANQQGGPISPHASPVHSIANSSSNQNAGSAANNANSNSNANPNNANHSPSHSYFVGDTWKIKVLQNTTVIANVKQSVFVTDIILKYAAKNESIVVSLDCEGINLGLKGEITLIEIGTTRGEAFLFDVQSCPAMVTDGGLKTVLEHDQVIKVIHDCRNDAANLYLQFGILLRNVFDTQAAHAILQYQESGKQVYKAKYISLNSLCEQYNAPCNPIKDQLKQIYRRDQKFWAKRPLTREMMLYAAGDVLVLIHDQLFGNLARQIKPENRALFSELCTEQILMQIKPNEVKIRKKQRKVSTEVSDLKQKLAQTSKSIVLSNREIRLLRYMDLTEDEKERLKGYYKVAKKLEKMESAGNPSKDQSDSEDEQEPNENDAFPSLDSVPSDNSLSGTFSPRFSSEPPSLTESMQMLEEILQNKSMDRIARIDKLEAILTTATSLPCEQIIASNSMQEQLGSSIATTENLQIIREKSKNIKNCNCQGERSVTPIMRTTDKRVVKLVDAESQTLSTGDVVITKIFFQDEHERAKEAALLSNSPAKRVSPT
T1 sequence (P16568 whole entry, chain 2 of 2): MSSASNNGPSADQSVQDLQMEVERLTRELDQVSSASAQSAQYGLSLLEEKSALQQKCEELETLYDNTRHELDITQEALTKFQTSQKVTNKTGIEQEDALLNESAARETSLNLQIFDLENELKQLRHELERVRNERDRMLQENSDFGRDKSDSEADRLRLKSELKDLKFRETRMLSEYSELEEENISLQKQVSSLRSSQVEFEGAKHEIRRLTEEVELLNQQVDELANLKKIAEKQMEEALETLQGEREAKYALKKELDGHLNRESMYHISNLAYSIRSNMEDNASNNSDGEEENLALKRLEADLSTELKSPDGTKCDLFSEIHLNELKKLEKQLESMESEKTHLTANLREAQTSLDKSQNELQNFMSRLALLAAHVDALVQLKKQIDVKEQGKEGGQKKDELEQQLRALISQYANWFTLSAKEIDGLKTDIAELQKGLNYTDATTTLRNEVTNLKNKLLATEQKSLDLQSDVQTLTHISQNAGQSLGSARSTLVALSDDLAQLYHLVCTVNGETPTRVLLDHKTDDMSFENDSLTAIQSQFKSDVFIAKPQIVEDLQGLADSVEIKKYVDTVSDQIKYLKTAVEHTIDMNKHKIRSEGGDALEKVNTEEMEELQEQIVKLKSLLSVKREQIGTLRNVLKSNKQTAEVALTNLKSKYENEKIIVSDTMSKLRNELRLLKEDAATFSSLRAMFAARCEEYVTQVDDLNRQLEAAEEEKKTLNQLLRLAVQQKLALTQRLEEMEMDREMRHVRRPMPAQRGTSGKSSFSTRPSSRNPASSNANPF

Series [2] has as its target T1, Egalitarian (Egl);Bicaudal D (BicD). The series can be described thus: MST; MST: 1 nM Cy5-RNA in GF150 (25 mM HEPES pH 7.3, 150 mM KCl, 1 mM MgCl2, 0.1 mM Mg-ATP, 5 mM DTT, 10% glycerol) + 0.05% Tween-20, 15 min, room temperature; Egl-BicD conc. as 2:2 complex. The settings on record: protein: recombinant;recombinant, tags: C-terminal TEV-ZZ (cleaved);, chain copies: 2;2, label: 5'-Cy5.

Series [3] has the same target. The series can be described thus: MST; two experiments, different preps; MST: 1 nM Cy5-RNA in GF150 (25 mM HEPES pH 7.3, 150 mM KCl, 1 mM MgCl2, 0.1 mM Mg-ATP, 5 mM DTT, 10% glycerol) + 0.05% Tween-20, 15 min, room temperature; Egl-BicD conc. as 2:2 complex. Conditions: protein: recombinant;recombinant; tags: C-terminal TEV-ZZ (cleaved);; chain copies: 2;2; label: 5'-Cy5; straight hairpin.

For series [4] the target is unchanged. The series can be described thus: MST; prep 4; MST: 1 nM Cy5-RNA in GF150 (25 mM HEPES pH 7.3, 150 mM KCl, 1 mM MgCl2, 0.1 mM Mg-ATP, 5 mM DTT, 10% glycerol) + 0.05% Tween-20, 15 min, room temperature; Egl-BicD conc. as 2:2 complex. Conditions: protein: recombinant;recombinant; tags: C-terminal TEV-ZZ (cleaved);; chain copies: 2;2; label: 5'-Cy5; hairpin.

B1: TLS-KSE (structured_RNA)
RNA: GUCAAAGCUUACCUUGAUUGUAUUUUUAAAUUAAUUCUUAAAAACUACAAAUUAAGUUGCAAACAUGCGAAUCCUAAACUCGGUUCACAACUUCCCCAAUUGAACAUAUAGUGGAAUUAUUAUUAUCAAUGGGGAAUAUGCUAGC
With B1, the binding result in series [1] is “binds”.

B2: bcdSLV (MST) (structured_RNA)
RNA: AAAAAUGUUUCUCUUGGGCGUAAUCUCAUACAAUGAUUACCCUUAAAGAUCGAACAUUU
Take B2: the Kd (usually a measure of binding affinity in units of concentration) in series [2] (hairpin with bulges) is 231 ± 64 nM.

AAGGGACAAGCGCAAGGUCAUUCGCAAGAGUGGCCUUGCGCUUGUCCC (structured_RNA) [2NUE RNA]: in series [3], the binding result is “no binding”.

B3: TLS∆b (structured_RNA)
RNA: UUACACCACUUGAUUGUAUUUUUAAAUUAAUUCUUAAAAAUACAAUUAAGAUCACUCU
Take B3: in series [4], the Kd came to 2800 ± 510 nM.

B4: TLS-2xGCED1 (structured_RNA)
RNA: UUACACCACUUGAGGGUAUUUUUAAAUUAAUUCUUAAAAACUACACCUUAAGAUCACUCU
With B4, the dissociation constant Kd in series [2] (hairpin with 3'-strand bulges) came out at 376 ± 154 nM.

B5: TLS-GCED2 (structured_RNA)
RNA: UUACACCACUUGAUUGUAUUUUGAAAUUAAUUCUUCAAAACUACAAAUUAAGAUCACUCU
For the molecule B5, the Kd in series [2] (hairpin with 3'-strand bulges) stood at 425 ± 140 nM.

B6: TLS-AUED1/ED2 (structured_RNA)
RNA: UUACACCACUUGAAUGUAUUUUAAAAUUAAUUCUUUAAAACUACAAUUUAAGAUCACUCU
Take B6: in series [2] (hairpin with 3'-strand bulges), the Kd was found to be 746 ± 91 nM.

B7: TLS-GCED1/ED2 (structured_RNA)
RNA: UUACACCACUUGAGUGUAUUUUGAAAUUAAUUCUUCAAAACUACAACUUAAGAUCACUCU
Take B7: the Kd in series [2] (hairpin with 3'-strand bulges) amounted to 4110 ± 1540 nM.

B8: TLS-2xGCED1+GCED2 (structured_RNA)
RNA: UUACACCACUUGAGGGUAUUUUGAAAUUAAUUCUUCAAAACUACACCUUAAGAUCACUCU
Turning to B8, the Kd in series [2] (hairpin with 3'-strand bulges) amounted to 1510 ± 210 nM.

B9: TLS-CGED1/ED2 (structured_RNA)
RNA: UUACACCACUUGACUGUAUUUUCAAAUUAAUUCUUGAAAACUACAAGUUAAGAUCACUCU
B9: the Kd in series [2] (hairpin with 3'-strand bulges) was 345 ± 34 nM.

B10: hSL1∆b (structured_RNA)
RNA: UGCGCGUAGACAUUUCACAUCAUUCGCCGGGAUUGGCAAAUGUUGUGAAGUGUUGCAAACAU
In the case of B10, the Kd in series [2] (hairpin) was determined as 204 ± 36 nM.

B11: GLS (MST) (structured_RNA)
RNA: AAAGUAAUUUUCGUGCUCUCAACAAUUGUCGCCGUCACAGAUUGUUGUUCGAGCCGAAUCUUACU
Regarding B11, the Kd in series [2] (hairpin with bulges) amounted to 39 ± 14 nM.

B12: hSL2 (structured_RNA)
RNA: AACUUCGUUGGCUUAGUUUCCUGGCUUAUAUCCUGGAAACCCGUCGACGAGG
Take B12: the Kd in series [2] (hairpin with bulges) is 603 ± 79 nM.

B13: KSE (structured_RNA)
RNA: AAACCCAAUUGAACAUAUAGUGGAAUUAUUAUUAUCAAUGGGGAAUAUUUAACCC
As for B13, the Kd in series [2] (hairpin) was determined as 507 ± 93 nM.

Source of the values: PMC13186709.
